From publication PMC9334453, “A native IgE in complex with profilin provides insights into allergen recognition and cross-reactivity” (Communications Biology, 2022)

T1: biotinylated rHev b 8 (Hevea brasiliensis, biotin (1:5 profilin:biotin ratio; sites not stated))
T1 construct: profilin Hev b 8, Hevea brasiliensis, named 'rHev b 8' in the BLI methods; The BLI methods say only 'Profilin rHev b 8'; also called biotinylated profilin; biotinylated allergen; source: E. coli Rosetta (DE3), purified (HisTrap), then biotinylated at a 1:5 profilin:biotin ratio and dialyzed
T1 chain: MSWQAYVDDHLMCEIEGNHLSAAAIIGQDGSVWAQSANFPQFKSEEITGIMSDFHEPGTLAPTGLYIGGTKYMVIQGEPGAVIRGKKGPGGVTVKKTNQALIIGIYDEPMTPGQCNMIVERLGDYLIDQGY

T2: DDDK-rHev b 8 (rHev b 8 with the last four residues of the enterokinase cleavage site at the N-terminus) (Hevea brasiliensis)
T2 construct: last four residues of the enterokinase cleavage site left at the N-terminus (D-3, D-2, D-1, K-0); D-2 makes a hydrogen bond with Y49 of the Fab light chain; profilin Hev b 8, Hevea brasiliensis, from M1; The whole construct was expected at 18,283 Da but measured 14,625 Da (14,629 Da in another paragraph): only DDDK is left of the N-terminal extension; also called DDDK-Hev b 8; rHev b 8 whole …
T2 chain: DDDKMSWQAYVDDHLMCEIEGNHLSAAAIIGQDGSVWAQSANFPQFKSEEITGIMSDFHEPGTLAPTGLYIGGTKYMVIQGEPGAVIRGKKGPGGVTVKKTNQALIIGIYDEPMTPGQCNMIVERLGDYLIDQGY

T3: recombinant maize profilin (rZea m 12) (Zea mays)
T3 construct: profilin Zea m 12, maize; has D14, G98, V118, E128; The mutagenesis primers encode KKT(N)MSL and YLI(D)QGF around positions 98 and 128
T3 chain: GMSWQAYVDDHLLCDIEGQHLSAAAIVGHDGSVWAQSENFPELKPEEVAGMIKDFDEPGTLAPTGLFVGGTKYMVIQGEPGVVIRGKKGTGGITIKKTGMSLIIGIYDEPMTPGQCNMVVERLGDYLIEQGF


Experiments:
Conditions in all cases: both partners purified
[1] = molecular target: T1, biotinylated rHev b 8; assay: BLI; same BLI data (biotinylated rHev b 8 on streptavidin, 25 °C, PBS pH 7.4, 0.05% Tween 20, 1 M NaCl); kon from the association step and koff from the dissociation step fitted separately in Prism 8, KD = koff/kon
[2] = molecular target: T1, biotinylated rHev b 8; assay: BLI; biotinylated rHev b 8 (125 nM) on streptavidin biosensors; Fab/IgE 2F5 at 62.5-2000 nM; 25 °C; PBS pH 7.4, 0.05% Tween 20, 1 M NaCl; 1:1 global fit considering nonspecific binding (Association-Dissociation model, GraphPad Prism 8)
[3] = molecular target: T2, DDDK-rHev b 8 (rHev b 8 with the last …); assay: MALDI-TOF mass spectrometry; sinapinic acid matrix; samples of Fab/IgE 2F5 and of its complex with rHev b 8 (whole construct); the peaks of the complex and of the dimeric Fab were not calibrated
[4] = molecular target: T3, recombinant maize profilin (rZea m 12); assay: ELISA; plates coated with 100 μL of 0.7 μM profilin in PBS pH 7.4, blocked with 1% BSA; IgE 2F5 in PBS, 1 h 37 °C; detected with HRP anti-mouse IgE Fcε, ABTS, 405 nm; n = 4
[5] = molecular target: T2, DDDK-rHev b 8 (rHev b 8 with the last …); assay: as above

Kd [1] [nM] | Kd [2] [nM] | binding result [3] | binding result [4] | binding result [5] | Binder
369 ± 3.8 | 370 ± 6.8 | binds |  |  | Fab/IgE 2F5 (papain Fab fragment of the murine IgE 2F5) (Fab, V domains shown, VH and Cε1; papain cleavage site said to be R209/P210 between Cε1 and Cε2; light chain of IgE 2F5; also called the Fab; source: papain digest of IgE 2F5 (36 h, 37 °C), purified (Superdex 75 SEC, Mono Q)) VH: EVQLVESGGGLVQPKGSLKLSCAASGFTFNTYAMNWVRQAPGKGLEWVARIRTKTNNYVTYYADSVKDRFTISRDDSQSMLYLQMNNLKTEDTAMYYCVRHVGDYWGQGTSVTVSS VL: DIQMTQSPASLSASVGETVTITCRASGNIHNYLAWFQQKQGKSPQLLVYNAKTLADGVPSRFSGSGSGTQYSLKINSLQPEDFGSYYCQHFWSTPYTFGGGTKLEIK
 |  |  | no binding | binds | murine monoclonal IgE antibody 2F5 (anti-profilin Hev b 8) (antibody, V domains shown, rest of the murine IgE (epsilon) heavy chain constant region after the papain site R209/P210 (Cε2 onward); as the light chain of m2; Native, non-recombinant IgE with naturally paired chains; also called IgE 2F5; mAb 2F5; copies: 2 + 2) VH: EVQLVESGGGLVQPKGSLKLSCAASGFTFNTYAMNWVRQAPGKGLEWVARIRTKTNNYVTYYADSVKDRFTISRDDSQSMLYLQMNNLKTEDTAMYYCVRHVGDYWGQGTSVTVSS VL: DIQMTQSPASLSASVGETVTITCRASGNIHNYLAWFQQKQGKSPQLLVYNAKTLADGVPSRFSGSGSGTQYSLKINSLQPEDFGSYYCQHFWSTPYTFGGGTKLEIK
